In paper PMC4643347:

Experiments:
[1] = target: ST50, outer-membrane protein of the multi-drug efflux system from Salmonella enterica serovar Typhi (Salmonella enterica serovar Typhi); assay: SEC; Superdex 200 10/30 GL; Tris 20 mM pH 7.5, NaCl 150 mM, β-DDM 0.2%; major fraction at about 220 kDa (trimer plus detergent micelle)
[2] = target: ST50, outer-membrane protein of the multi-drug efflux system from Salmonella enterica serovar Typhi (Salmonella enterica serovar Typhi); assay: crystal structure; ST50 crystallised by hanging-drop vapor diffusion; sodium acetate 100 mM pH 4.6, NaCl 86 mM, PEG 8000 10.4%, β-OG 0.4%, 18 °C; 2.98 Å; three protomers per asymmetric unit

ST50, outer-membrane protein of the multi-drug efflux system from Salmonella enterica serovar Typhi (natural protein)
stoichiometry N [1]: 3 | stoichiometry N [2]: 3
